In the supplement of paper PMC10724198:
± gives the standard deviation of the averaged measurements.

Tested on: Saccharomyces cerevisiae
Test: protein stability index of tFT-peptide fusion (C-terminal peptide) (PSI (0-1 scale)); higher = more stable (slower turnover)
Conditions: temperature: 30 C
Procedure: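 MPS profiling in S. cerevisiae of the yeast C-terminome library: the last 12 aa of each annotated ORF are fused to the C-terminus of a sfGFP-mCherry timer, after a GGGS linker. Cells are FACS-sorted into 8 mCherry/sfGFP bins and deep-sequenced. PSI runs from 0 (unstable) to 1 (stable); wild type and das1Δ backgrounds, two technical replicates each.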

[1] = genetic background: das1 deletion

Sequence | protein stability index [1] | protein stability index (genetic background: wild type)
YIHTYIYLLFVY [YIL100C-A C-terminal 12 aa] | 0.222 ± 0.01 | 0.198 ± 0.036
EQAAKYIEYLNL [RAD10 C-terminal 12 aa] | 0.817 ± 0.019 | 0.603 ± 0.045
MSLLGLVPVDRM [MSR1 C-terminal 12 aa] | 0.696 ± 0.00089 | 0.688 ± 0.023
VIKCFTSSDMTS [NAG1 C-terminal 12 aa] | 0.701 ± 0.026 | 0.683 ± 0.053
SHPTEQTEVSSQ [MHR1 C-terminal 12 aa] | 0.697 ± 0.0079 | 0.68 ± 0.02
LVIKRRGFEINT [PET122 C-terminal 12 aa] | 0.66 ± 0.015 | 0.721 ± 0.043
DKEVLHVKADSL [FTR1 C-terminal 12 aa] | 0.7131 ± 0.0063 | 0.7 ± 0.047
SNENARNNNPYL [FLC2 C-terminal 12 aa] | 0.6906 ± 0.0056 | 0.705 ± 0.043
GAHDDMDNGDDW [LAS17 C-terminal 12 aa] | 0.689 ± 0.01 | 0.663 ± 0.015
TGTSTEAPSAAN [NCL1 C-terminal 12 aa] | 0.6661 ± 0.00092 | 0.6578 ± 0.0053
GFADLDNFMSSL [HAA1 C-terminal 12 aa] | 0.686 ± 0.039 | 0.689 ± 0.033
EEMIRSSSLYDE [ACA1 C-terminal 12 aa] | 0.7312 ± 0.0059 | 0.711 ± 0.029
NQIIQARLKDLE [DNF3 C-terminal 12 aa] | 0.686 ± 0.021 | 0.6964 ± 0.0035
NRKIARMRHSKR [NUP1 C-terminal 12 aa] | 0.706 ± 0.022 | 0.7119 ± 0.007
MRLTHKSKKKMK [SUE1 C-terminal 12 aa] | 0.72 ± 0.026 | 0.695 ± 0.0075
KWCASYSAGNRR [YLR280C C-terminal 12 aa] | 0.709 ± 0.017 | 0.6752 ± 0.0061
LKQKALVAAKQS [YJR015W C-terminal 12 aa] | 0.679 ± 0.024 | 0.319 ± 0.03
HLNESVYSKPLP [YIL028W C-terminal 12 aa] | 0.6938 ± 0.0028 | 0.678 ± 0.065
LLHYQSWHFSIY [YJL007C C-terminal 12 aa] | 0.707 ± 0.035 | 0.407 ± 0.026
SVYEHEHEKTFI [FUR4 C-terminal 12 aa] | 0.7127 ± 0.0018 | 0.706 ± 0.0091
LLPLIYLINKSL [YMR013C-A C-terminal 12 aa] | 0.622 ± 0.014 | 0.199 ± 0.022

Sequence | protein stability index [1] | protein stability index (genetic background: wild type)
SICPAIRRKEDY [RDT1 C-terminal 12 aa] | 0.699 ± 0.025 | 0.659 ± 0.025
CIGDTDYIERYD [CDA1 C-terminal 12 aa] | 0.694 ± 0.015 | 0.685 ± 0.031
AEETAVFTLPNV [GGA2 C-terminal 12 aa] | 0.7266 ± 0.0034 | 0.694 ± 0.0082
MERRARQQRGQD [MND2 C-terminal 12 aa] | 0.71114 ± 0.0003 | 0.717 ± 0.046
DIGKKKYSHSSN [RER1 C-terminal 12 aa] | 0.673 ± 0.043 | 0.686 ± 0.049
EEAFGKVQTKTF [SOL3 C-terminal 12 aa] | 0.7098 ± 0.0052 | 0.7564 ± 0.0044
ISVYCGTTLEVM [TFC8 C-terminal 12 aa] | 0.44 ± 0.016 | 0.469 ± 0.013
FARFITAIFHHI [MKC7 C-terminal 12 aa] | 0.73 ± 0.019 | 0.153 ± 0.0061
SLPRQAGGRKKK [GLC7 C-terminal 12 aa] | 0.715 ± 0.033 | 0.668 ± 0.052
QEIQKKPSQQVS [BIG1 C-terminal 12 aa] | 0.698 ± 0.0083 | 0.683 ± 0.066
RLKTGKKKGGPK [RRP14 C-terminal 12 aa] | 0.6909 ± 0.0054 | 0.766 ± 0.13
GWDRLVEARSQI [EMW1 C-terminal 12 aa] | 0.7268 ± 0.0039 | 0.708 ± 0.027
IAREIFHNVTNF [SEC39 C-terminal 12 aa] | 0.724 ± 0.025 | 0.695 ± 0.037
WYQIVVQMIYIC [PSY1 C-terminal 12 aa] | 0.186 ± 0.0065 | 0.0907 ± 0.006
DLDLDLFDPDDF [MED4 C-terminal 12 aa] | 0.7055 ± 0.0036 | 0.684 ± 0.044
IGISPSQNKWEK [REX3 C-terminal 12 aa] | 0.728 ± 0.02 | 0.7285 ± 0.0071
KSEVERVYKENS [FAA3 C-terminal 12 aa] | 0.718 ± 0.0093 | 0.6803 ± 0.0059
CERCKSELQSVH [SET6 C-terminal 12 aa] | 0.686 ± 0.0084 | 0.663 ± 0.03
HAQKRVSNASAR [SKI6 C-terminal 12 aa] | 0.6983 ± 0.0028 | 0.6988 ± 0.0036
LDAILLDIICND [MDM1 C-terminal 12 aa] | 0.697 ± 0.0082 | 0.735 ± 0.045
GGFSTEFNSCDT [MLF3 C-terminal 12 aa] | 0.719 ± 0.019 | 0.721 ± 0.023

Sequence | protein stability index [1] | protein stability index (genetic background: wild type)
PFDYSDIPAADI [GPI10 C-terminal 12 aa] | 0.714 ± 0.023 | 0.698 ± 0.019
KDDTPEDNLEDK [VBA5 C-terminal 12 aa] | 0.6969 ± 0.0021 | 0.71 ± 0.0088
ALKLRALEKLSF [NCS6 C-terminal 12 aa] | 0.711 ± 0.014 | 0.697 ± 0.037
KEESGTTSLPTI [GGA1 C-terminal 12 aa] | 0.723 ± 0.02 | 0.704 ± 0.011
KDNSVGKILNST [BOP3 C-terminal 12 aa] | 0.667 ± 0.018 | 0.71 ± 0.026
KGKSFILDSSKL [MDH3 C-terminal 12 aa] | 0.77184 ± 0.00047 | 0.733 ± 0.039
TPQEILQRFQKQ [EAF1 C-terminal 12 aa] | 0.6812 ± 0.0053 | 0.732 ± 0.029
RDNPILLEDEDP [ULP2 C-terminal 12 aa] | 0.708 ± 0.022 | 0.6747 ± 0.00092
GSVCFIMDYFTG [VPS62 C-terminal 12 aa] | 0.706 ± 0.013 | 0.677 ± 0.015
DDNDDGDDDDDW [MYO3 C-terminal 12 aa] | 0.68701 ± 0.00044 | 0.7087 ± 0.0034
KAFVEKLNSKKD [YBT1 C-terminal 12 aa] | 0.707 ± 0.026 | 0.683 ± 0.011
TSSTPKSPSSGS [SMY1 C-terminal 12 aa] | 0.691 ± 0.018 | 0.67 ± 0.014
KQKALRGEFGAF [RNA15 C-terminal 12 aa] | 0.709 ± 0.011 | 0.688 ± 0.01
EINNNLGVRLVD [DMA1 C-terminal 12 aa] | 0.711 ± 0.012 | 0.697 ± 0.026
TYRLGEWSKISV [POP1 C-terminal 12 aa] | 0.694 ± 0.011 | 0.6913 ± 0.0047
FPWSHGTCIRGA [YOR376W C-terminal 12 aa] | 0.696 ± 0.013 | 0.688 ± 0.01
SNFSRTLGLEFI [YGL041C C-terminal 12 aa] | 0.711 ± 0.0098 | 0.716 ± 0.077
ITRTRLDSFVKT [YBR072C-A C-terminal 12 aa] | 0.696 ± 0.038 | 0.6292 ± 0.0014
EYLQSMKTSINR [SFB2 C-terminal 12 aa] | 0.69 ± 0.024 | 0.695 ± 0.024
QTSAKVSIRLLY [SER33 C-terminal 12 aa] | 0.659 ± 0.034 | 0.595 ± 0.0064
QRIKQNNFLSQL [MRPL37 C-terminal 12 aa] | 0.7 ± 0.016 | 0.731 ± 0.05

Sequence | protein stability index [1] | protein stability index (genetic background: wild type)
TLTDLRDELRGL [NUP120 C-terminal 12 aa] | 0.678 ± 0.018 | 0.721 ± 0.024
LSVTLGEGKYHH [CSG2 C-terminal 12 aa] | 0.685 ± 0.03 | 0.686 ± 0.034
RPMPPIRGPKRR [SMD3 C-terminal 12 aa] | 0.688 ± 0.017 | 0.724 ± 0.048
ELENEHVPWGKK [HNM1 C-terminal 12 aa] | 0.714 ± 0.032 | 0.667 ± 0.015
QLESDPPPCDDY [RIM8 C-terminal 12 aa] | 0.7171 ± 0.0053 | 0.689 ± 0.039
MGVFILFLDYVG [UFE1 C-terminal 12 aa] | 0.277 ± 0.032 | 0.314 ± 0.013
MEKENSGLIAFS [HOS2 C-terminal 12 aa] | 0.7089 ± 0.0061 | 0.7064 ± 0.0059
KVTKAAQKAAKK [YPR080W; YBR118W C-terminal 12 aa] | 0.678 ± 0.0078 | 0.696 ± 0.012
RLVVEPLQGRKH [ISD11 C-terminal 12 aa] | 0.729 ± 0.011 | 0.72 ± 0.036
DLSTRIYSLAYE [ELP2 C-terminal 12 aa] | 0.71 ± 0.051 | 0.665 ± 0.011
TNDSFNIVALTP [PRP19 C-terminal 12 aa] | 0.68811 ± 0.00023 | 0.654 ± 0.017
VQRVILITHLNV [YOL083C-A C-terminal 12 aa] | 0.6054 ± 0.0053 | 0.616 ± 0.0084
GIPEEFKEFTEV [MND1 C-terminal 12 aa] | 0.7022 ± 0.0026 | 0.7181 ± 0.0035
LQTMSFLMNHLI [YJL032W C-terminal 12 aa] | 0.6597 ± 0.0011 | 0.23 ± 0.042
SIPGITGRAQIS [ORM1 C-terminal 12 aa] | 0.6983 ± 0.0014 | 0.6656 ± 0.0065
SSASPEVDCRCG [YLR444C C-terminal 12 aa] | 0.705 ± 0.0094 | 0.7312 ± 0.0057
YEEALKLGWDKN [OYE2 C-terminal 12 aa] | 0.735 ± 0.046 | 0.762 ± 0.0096
NELRMSSSSLTN [VHS1 C-terminal 12 aa] | 0.6718 ± 0.0013 | 0.693 ± 0.0083
EREVNPSARSLG [YLR184W C-terminal 12 aa] | 0.694 ± 0.028 | 0.684 ± 0.013
